Measured values: patent US20260184782A1 (TWIST BIOSCIENCE, published 2026)

T1: human TIGIT-Fc (human, UniProt Q495A1 22-141, limits assumed)
T1 construct: not shown: Fc; not described
T1 sequence (looked up): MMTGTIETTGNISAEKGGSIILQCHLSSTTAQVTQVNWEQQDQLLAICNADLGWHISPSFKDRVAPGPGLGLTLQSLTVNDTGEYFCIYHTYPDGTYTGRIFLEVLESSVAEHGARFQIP


Biological target: T1, human TIGIT-Fc
Assay: CD155 competition ELISA, single point; note: test concentration or dose not given here
Experimental: TIGIT/CD155 inhibition of VHH-Fcs were assessed using an ELISA assay (Table 10B). Briefly, human TIGIT-Fc was coated on a plate & then incubated with VHH-Fcs and human CD155-biotin. Bound CD155-biotin was detected using a streptavidin-HRP conjugate visualized with TMB. Strong inhibitors from the single point screen were titrated to determine EC50 (Table 10C).

Row | Binder | OD (450 nm)
1 | TIGIT-SC42 (Fc fusion, VHH-Fc) VHH: EVQLVESGGGLVQPGGSLRLSCAASGNTFSGGFMGWFRQAPGKEREWVATVLRGGYTWYADSVKGRFTISADNSKNTAYLQMNSLKPEDTAVYYCASGGFLASWGQGTLVTVSS | 0.341 OD
2 | TIGIT-SC171 (Fc fusion, VHH-Fc) VHH: EVQLVESGGGLVQPGGSLRLSCAASGFTFDRSWMGWFRQAPGKEREWVASVLRGGYTWYADSVKGRFTISADNSKNTAYLQMNSLKPEDTAVYYCATERRLGVWGQGTLVTVSS | 0.571 OD
3 | TIGIT-SC191 (Fc fusion, VHH-Fc) VHH: EVQLVESGGGLVQPGGSLRLSCAASGFVFSSDWMGWFRQAPGKEREWVASVLRGGYTWYADSVKGRFTISADNSKNTAYLQMNSLKPEDTAVYYCARGDSMDVWGQGTLVTVSS | 0.49 OD
4 | TIGIT-SC195 (Fc fusion) VHH: EVQLVESGGGLVQPGGSLRLSCAASGFAFSSDWMGWFRQAPGKEREWVASVLRGGYTWYADSVKGRFTISADNSKNTAYLQMNSLKPEDTAVYYCARGEGFDYWGQGTLVTVSS | 0.426 OD
5 | TIGIT-SC198 (Fc fusion, VHH-Fc) VHH: EVQLVESGGGLVQPGGSLRLSCAASGFTFSPSWMGWFRQAPGKEREYVASVLRGGYTWYADSVKGRFTISADNSKNTAYLQMNSLKPEDTAVYYCASEGDPDYWGQGTLVTVSS | 0.514 OD
6 | TIGIT-SC201 (Fc fusion, VHH-Fc) VHH: EVQLVESGGGLVQPGGSLRLSCAASGFTFSPSWMGWFRQAPGKEREWVASVLRGGYTWYADSVKGRFTISADNSKNTAYLQMNSLKPEDTAVYYCTRDGGFDPWGQGTLVTVSS | 0.509 OD
7 | TIGIT-SC203 (Fc fusion, VHH-Fc) VHH: EVQLVESGGGLVQPGGSLRLSCAASGFTFSPSWMGWFRQAPGKEREWVASVLRGGYTWYADSVKGRFTISADNSKNTAYLQMNSLKPEDTAVYYCARDRGGSDWGQGTLVTVSS | 0.521 OD
8 | TIGIT-SC27 (Fc fusion, VHH-Fc) VHH: EVQLVESGGGLVQPGGSLRLSCAASGLTFSNYVMGWFRQAPGKEREVVAGILSDGRELYADSVKGRFTISADNSKNTAYLQMNSLKPEDTAVYYCARDVFGEGHWGQGTLVTVSS | 0.505 OD
9 | TIGIT-SC28 (Fc fusion, VHH-Fc) VHH: EVQLVESGGGLVQPGGSLRLSCAASGRTFSTDAMGWFRQAPGKEREFVATINWKDGFTYYADSVKGRFTISADNSKNTAYLQMNSLKPEDTAVYYCAGVGHDYGDYLFDYWGQGTLVTVSS | 0.539 OD
10 | TIGIT-SC29 (Fc fusion, VHH-Fc) VHH: EVQLVESGGGLVQPGGSLRLSCAASGFTLENNMMGWFRQAPGKERELVAAIDWSGGSTIYADSVKGRFTISADNSKNTAYLQMNSLKPEDTAVYYCARGHDYGDYIAYWGQGTLVTVSS | 0.399 OD
11 | TIGIT-SC30 (Fc fusion, VHH-Fc) VHH: EVQLVESGGGLVQPGGSLRLSCAASGRSFSSDWIGWFRQAPGKERELVAAIDWSGGSALYADSVKGRFTISADNSKNTAYLQMNSLKPEDTAVYYCARVNWNNVGWFDPWGQGTLVTVSS | 0.495 OD
12 | TIGIT-SC32 (Fc fusion, VHH-Fc) VHH: EVQLVESGGGLVQPGGSLRLSCAASGFAFGDSWMGWFRQAPGKERELVAAIDWSGGSALYADSVKGRFTISADNSKNTALQMNSLKPEDTAVYYCAKVHSDFRAGWDVWGQGTLVTVSS | 0.86 OD
13 | TIGIT-SC33 (Fc fusion, VHH-Fc) VHH: EVQLVESGGGLVQPGGSLRLSCAASGFLFDSYAMGWFRQAPGKEREFVAAVSQSGLLTFYADSVKGRFTISADNSKNTAYLQMNSLKPEDTAVYYCASRTSSWWWFDPWGQGTLVTVSS | 0.764 OD
14 | TIGIT-SC34 (Fc fusion, VHH-Fc) VHH: EVQLVESGGGLVQPGGSLRLSCAASGTTFSPYTMGWFRQAPGKEREFVASINSGSRTNYADSVKGRFTISADNSKNTAYLQMNSLKPEDTAVYYCVRSEIGWGQGTLVTVSS | 0.4 OD
15 | TIGIT-SC35 (Fc fusion, VHH-Fc) VHH: EVQLVESGGGLVQPGGSLRLSCAASGFTLENNMMGWFRQAPGKERELVAAISMSGDDTIYADSVKGRFTISADNSKNTAYLQMNSLKPEDTAVYYCARQGDTVMVSGIDYWGQGTLVTVSS | 0.42 OD
16 | TIGIT-SC39 (Fc fusion, VHH-Fc) VHH: EVQLVESGGGLVQPGGSLRLSCAASGRTVSSHAMGWFRQAPGKEREFVAAITSSGSTYYADSVKGRFTISADNSKNTAYLQMNSLKPEDTAVYYCASSYSSSSGLGDIWGQGTLVTVSS | 0.652 OD
17 | TIGIT-SC40 (Fc fusion, VHH-Fc) VHH: EVQLVESGGGLVQPGGSLRLSCAASGFSFDRWAMGWFRQAPGKERELVARISWNGGSTYYADSVKGRFTISADNSKNTAYLQMNSLKPEDTAVYYCARDDGWLQFMHWGQGTLVTVSS | 0.613 OD

Row | Binder | OD (450 nm)
18 | TIGIT-SC43 (Fc fusion, VHH-Fc) VHH: EVQLVESGGGLVQPGGSLRLSCAASGFTFADYAMGWFRQAPGKEREMVAAIGWNSGTTEYADSVKGRFTISADNSKNTAYLQMNSLKPEDTAVYYCARDTNGWFFDFWGQGTLVTVSS | 0.64 OD
19 | TIGIT-SC44 (Fc fusion, VHH-Fc) VHH: EVQLVESGGGLVQPGGSLRLSCAASGSIFGLGAMGWFRQAPGKERELVAITWGGSTTLYADSVKGRFTISADNSKNTAYLQMNSLKPEDTAVYYCATDQGQWLFDFWGQGTLVTVSS | 0.359 OD
20 | TIGIT-SC45 (Fc fusion, VHH-Fc) VHH: EVQLVESGGGLVQPGGSLRLSCAASGGTFNAMGWFRQAPGKEREWVASVLRGGYTWYADSVKGRFTISADNSKNTAYLQMNSLKPEDTAVYYCAKDGGSSGTYQNWWGQGTLVTVSS | 0.359 OD
21 | TIGIT-SC47 (Fc fusion, VHH-Fc) VHH: EVQLVESGGGLVQPGGSLRLSCAASGRALNMYVMGWFRQAPGKERELVAAIDWSGGSALYADSVKGRFTISADNSKNTAYLQMNSLKPEDTAVYYCASGDGYSMDYFDPWGQGTLVTVSS | 0.69 OD
22 | TIGIT-SC48 (Fc fusion, VHH-Fc) VHH: EVQLVESGGGLVQPGGSLRLSCAASGRTSDIYGMGWFRQAPGKEREAVASIWRSGGNTYYADSVKGRFTISADNSKNTAYLQMNSLKPEDTAVYYCASSTLDVWGQGTLVTVSS | 0.381 OD
23 | TIGIT-SC49 (Fc fusion, VHH-Fc) VHH: EVQLVESGGGLVQPGGSLRLSCAASGRTFIGYHMGWFRQAPGKEREFVAAISWTGESTLYADSVKGRFTISADNSKNTAYLQMNSLKPEDTAVYYCARDDYGDYRRYFQHWGQGTLVTVSS | 0.382 OD
24 | TIGIT-SC52 (Fc fusion, VHH-Fc) VHH: EVQLVESGGGLVQPGGSLRLSCAASGFLFDSYAMGWFRQAPGKEREFVAAISTGGGWRTYADSVKGRFTISADNSKNTAYLQMNSLKPEDTAVYYCAKRGNDNWYFDLWGQGTLVTVSS | 0.351 OD
25 | TIGIT-SC55 (Fc fusion, VHH-Fc) VHH: EVQLVESGGGLVQPGGSLRLSCAASGFPFDDYAMGWFRQAPGKERELVAVIRWTGMNTHYADSVKGRFTISADNSKNTAYLQMNSLKPEDTAVYYCAKGIAVAGAFDYWGQGTLVTVSS | 0.364 OD
26 | TIGIT-SC56 (Fc fusion, VHH-Fc) VHH: EVQLVESGGGLVQPGGSLRLSCAASGNTFSGGFMGWFRQAPGKEREWVASVLRGGYTWYADSVKGRFTISADNSKNTAYLQMNSLKPEDTAVYYCAHSKGYNWFDPWGQGTLVTVSS | 0.335 OD
27 | TIGIT-SC66 (Fc fusion, VHH-Fc) VHH: EVQLVESGGGLVQPGGSLRLSCAASGTTFSSAAMGWFRQAPGKEREWVASVLRGGYTWYADSVKGRFTISADNSKNTAYLQMNSLKPEDTAVYYCVTDPRQWLGHDYWGQGTLVTVSS | 0.325 OD
28 | TIGIT-SC69 (Fc fusion, VHH-Fc) VHH: EVQLVESGGGLVQPGGSLRLSCAASGGTFNGRAMGWFRQAPGKEREFVAAISSIGDTYYADSVKGRFTISADNSKNTAYLQMNSLKPEDTAVYYCARWRLDRRQGFYYAMDVWGQGTLVTVSS | 0.666 OD
29 | TIGIT-SC70 (Fc fusion, VHH-Fc) VHH: EVQLVESGGGLVQPGGSLRLSCAASGRTFSSFAMGWFRQAPGKEREFVAAISGSGEDTYYADSVKGRFTISADNSKNTAYLQMNSLKPEDTAVYYCARWRLDRRQGFYYAMDVWGQGTLVTVSS | 0.64 OD
30 | TIGIT-SC71 (Fc fusion, VHH-Fc) VHH: EVQLVESGGGLVQPGGSLRLSCAASGSIRSLNAMGWFRQAPGKEREFVAAINWDSARTYYADSVKGRFTISADNSKNTAYLQMNSLKPEDTAVYYCARWSAKRHSDTMTYYMDVWGQGTLVTVSS | 0.868 OD
31 | TIGIT-SC72 (Fc fusion, VHH-Fc) VHH: EVQLVESGGGLVQPGGSLRLSCAASGGLTFSSYAMGWFRQAPGKEREFVAAISWSGGRTYYADSVKGRFTISADNSKNTAYLQMNSLKPEDTAVYYCARWSAKRHSDTMTYYMDVWGQGTLVTVSS | 0.394 OD
32 | TIGIT-SC73 (Fc fusion, VHH-Fc) VHH: EVQLVESGGGLVQPGGSLRLSCAASGSSFSLADYAMGWFRQAPGKEREFVAAISYNVGTTYYADSVKGRFTISADNSKNTAYLQMNSLKPEDTAVYYCARWSAKRHSDTMTYYMDVWGQGTLVTVSS | 0.405 OD
33 | TIGIT-SC74 (Fc fusion, VHH-Fc) VHH: EVQLVESGGGLVQPGGSLRLSCAASGRTFANNAMGWFRQAPGKEREFVAAINWSGGNTYYADSVKGRFTISADNSKNTAYLQMNSLKPEDTAVYYCAKWSYYGSGLYGMDVWGQGTLVTVSS | 0.649 OD
